Data as given in publication PMC6037002, “Drug targeting to decrease cardiotoxicity – determination of the cytotoxic effect of GnRH-based conjugates containing doxorubicin, daunorubicin and methotrexate on human cardiomyocytes and endothelial cells” (Beilstein Journal of Organic Chemistry, 2018).
Like-named read-outs stand apart in the source and are kept apart here.

Experiments:
[1] = tested on: human umbilical vein endothelial cells (HUVEC); assay: Impedimetric measurement (xCELLigence SP), delta slope, HUVEC; conditions: for delta slope (DS), short-term / delta slope (DS), long-term: HUVEC, three parallels; for delta slope (DS), short-term: 0–2 h; for delta slope (DS), long-term: 0–72 h; for Cardiotoxicity, HUVEC: grade +++/++/+/0, key not given, summary of impedimetric cytotoxicity; for cytotoxic effect on HUVEC, result in words: long-term (0–72 h), 10^−8–10^−6 mol/L, impedimetry, one-way ANOVA
[2] = tested on: primary human cardiac myocytes (HCM); conditions: for delta slope (DS), short-term / delta slope (DS), long-term: HCM, three parallels; for delta slope (DS), short-term: 0–2 h; for delta slope (DS), long-term: 0–72 h; for cytotoxic effect on HCM, result in words: long-term (0–72 h), 10^−8–10^−6 mol/L (free drugs 10^−12–10^−6 mol/L), impedimetry, one-way ANOVA
[3] = tested on: HT-29 human colon adenocarcinoma cells; conditions: MTT assay; cited from earlier work
Description: (§1) Table 1 Comparative study of cytotoxic effects and cardiotoxicity elicited by GnRH-based antitumor compounds (1–15) and reference substances (AN-152, Dox, Dau, Mtx). IC50 values show antitumor cytotoxic characteristics of the conjugates in human breast cancer (MCF-7), human colorectal adenocarcinoma (HT-29) and human acute monocytic leukemia (MM6) derived cell lines as representative tumor cells.

[4] = tested on: MCF-7 human breast adenocarcinoma cells; conditions: MTT assay; cited from earlier work
Description: as §1

[5] = tested on: human acute monocytic leukemia (MonoMac6) cells; conditions: cited from earlier work
Description: as §1

[6] = cited from earlier work
Description: The GnRH derivatives were prepared by solid phase peptide synthesis (SPPS) according to Fmoc/t-Bu strategy (Supporting Information File 2). Three drug molecules, doxorubicin (Dox), daunorubicin (Dau) and methotrexate (Mtx), were employed in the preparation of drug conjugates. Dox has three potential conjugation sites; i) a primary OH group at C-14 on the aglycone part, which is suitable for ester bond formation, ii) an oxo group at C-13 is available for the generation of an oxime linkage and iii) the amino group on the daunosamine sugar moiety, which can be used for amide bond formation. The d ...

Row | Substance | delta slope (DS), short-term ([1]; Table S3a, 10^-6 mol/L) | delta slope (DS), short-term ([1]; Table S3a, 10^-7 mol/L) | delta slope (DS), short-term ([1]; Table S3a, 10^-8 mol/L) | delta slope (DS), long-term ([1]; Table S3a, 10^-6 mol/L) | delta slope (DS), long-term ([1]; Table S3a, 10^-7 mol/L) | delta slope (DS), long-term ([1]; Table S3a, 10^-8 mol/L) | Cardiotoxicity, HUVEC [1] | cytotoxic effect on HUVEC, result in words [1] | delta slope (DS), short-term ([2]; Table S3b, 10^-6 mol/L) | delta slope (DS), short-term ([2]; Table S3b, 10^-7 mol/L) | delta slope (DS), short-term ([2]; Table S3b, 10^-8 mol/L) | delta slope (DS), long-term ([2]; Table S3b, 10^-6 mol/L) | delta slope (DS), long-term ([2]; Table S3b, 10^-7 mol/L) | delta slope (DS), long-term ([2]; Table S3b, 10^-8 mol/L) | IC50 [3] [µM] | IC50 [4] [µM] | IC50 [5] [µM] | enzymatic stability, result in words [6] | delta slope (DS), short-term ([1]; Table S4a, 10^-6 mol/L) | cytotoxic effect on HCM, result in words [2] | other results
1 | [^4Lys(Ac)]-GnRH-III(Dau=Aoa) [conjugate 5] | 0.002 | 0.004 | -0.001 | -0.001 | -0.001 | -0.001 | 0 | completely lost the cytotoxic effect | -0.005 | -0.001 | -0.002 | −0.003 | -0.001 | 0.001 | 7.4 ± 2.6 | 3.1 ± 1.7 | 0.925 ± 0.07 | increased the enzymatic stability |  |  | 
2 | [^4N-MeSer]-GnRH-III(Dau=Aoa) [conjugate 6] |  |  |  |  |  |  | 0 | completely lost the cytotoxic effect |  |  |  |  |  |  |  | 10.6 ± 2.1 | > 1 | increased the enzymatic stability | 0.006 | completely lost their cytotoxic effect | delta slope (DS), short-term ([1]; Table S4a, 10^-7 mol/L): 0.002; delta slope (DS), short-term ([1]; Table S4a, 10^-8 mol/L): 0.011; delta slope (DS), long-term ([1]; Table S4a, 10^-6 mol/L): 0.001; delta slope (DS), long-term ([1]; Table S4a, 10^-7 mol/L): -0.001; delta slope (DS), long-term ([1]; Table S4a, 10^-8 mol/L): 0.001; delta slope (DS), short-term ([2]; Table S4b, 10^-6 mol/L): 0.001; delta slope (DS), short-term ([2]; Table S4b, 10^-7 mol/L): -0.001; delta slope (DS), short-term ([2]; Table S4b, 10^-8 mol/L): -0.005; delta slope (DS), long-term ([2]; Table S4b, 10^-6 mol/L): 0.001; delta slope (DS), long-term ([2]; Table S4b, 10^-7 mol/L): -0.002; delta slope (DS), long-term ([2]; Table S4b, 10^-8 mol/L): -0.002; Cardiotoxicity, HCM ([2]; grade +++/++/+/0, key not given, summary of impedimetric cytotoxicity): 0
3 | [^4Lys(Dau=Aoa)]-GnRH-III(Dau=Aoa) [conjugate 14] | 0.006 | -0.005 | 0.002 | -0.001 | -0.001 | 0.001 | 0 | completely lost the cytotoxic effect | -0.001 | -0.002 | 0.001 | -0.002 | -0.001 | -0.0011 | 6.8 ± 1 | 2.9 ± 0.9 | 0.513 ± 0.04 |  |  | completely lost their cytotoxic effect | 
4 | GnRH-III(Dau=Aoa-GFLG) [conjugate 7] |  |  |  |  |  |  |  |  |  |  |  |  |  |  | 22.5 ± 1.7 | 3.9 ± 1.2 | 0.894 ± 0.25 |  | 0.003 | completely lost their cytotoxic effect | delta slope (DS), short-term ([1]; Table S4a, 10^-7 mol/L): -0.012; delta slope (DS), short-term ([1]; Table S4a, 10^-8 mol/L): -0.002; delta slope (DS), long-term ([1]; Table S4a, 10^-6 mol/L): −0.013; delta slope (DS), long-term ([1]; Table S4a, 10^-7 mol/L): 0.001; delta slope (DS), long-term ([1]; Table S4a, 10^-8 mol/L): -0.001; delta slope (DS), short-term ([2]; Table S4b, 10^-6 mol/L): 0.003; delta slope (DS), short-term ([2]; Table S4b, 10^-7 mol/L): -0.001; delta slope (DS), short-term ([2]; Table S4b, 10^-8 mol/L): -0.001; delta slope (DS), long-term ([2]; Table S4b, 10^-6 mol/L): -0.002; delta slope (DS), long-term ([2]; Table S4b, 10^-7 mol/L): -0.002; delta slope (DS), long-term ([2]; Table S4b, 10^-8 mol/L): 0.001
